Assay results as given in the DeepSol protein solubility set.

Test: soluble on expression in E. coli; label from the status in PepcDB or PDB records

| Sequence | soluble on expression in E. coli |
| --- | --- |
| MTPLRVFRKTTPLVNTIRLSLLPLAGLSFSAFAAQVNIAPGSLDKALNQYAAHSGFTLSVDASLTRGKQSNGLHGDYDVESGLQQLLDGSGLQVKPLGNNSWTLEPAPAPKEDALTVVGDWLGDARENDVFEHAGARDVIRREDFAKTGATTMREVLNRIPGVSAPENNGTGSHDLAMNFGIRGLNPRLASRSTVLMDGIPVPFAPYGQPQLSLAPVSLGNMDAIDVVRGGGAVRYGPQSVGGVVNFVTRAIPQDFGIEAGVEGQLSPTSSQNNPKETHNLMVGGTADNGFGTALLYSGTRGSDWREHSATRIDDLMLKSKYAPDEVHTFNSLLQYYDGEADMPGGLSRADYDADRWQSTRPYDRFWGRRKLASLGYQFQPDSQHKFNIQGFYTQTLRSGYLEQGKRITLSPRNYWVRGIEPRYSQIFMIGPSAHEVGVGYRYLNESTHEMRYYTATSSGQLPSGSSPYDRDTRSGTEAHAWYLDDKIDIGNWTITPGMRFEHIESYQNNAITGTHEEVSYNAPLPALNVLYHLTDSWNLYANTEGSFGTVQYSQIGKAVQSGNVEPEKARTWELGTRYDDGALTAEMGLFLINFNNQYDSNQTNDTVTARGKTRHTGLETQARYDLGTLTPTLDNVSIYASYAYVNAEIREKGDTYGNLVPFSPKHKGTLGVDYKPGNWTFNLNSDFQSSQFADNANTVKESADGSTGRIPGFMLWGARVAYDFGPQMADLNLAFGVKNIFDQDYFIRSYDDNNKGIYAGQPRTLYMQGSLKF | soluble |
| MTPPPADDTSGKSGRRTELLDIAATLFAERGLRATTVRDIADAAGILSGSLYHHFDSKESMVDEILRGFLDDLFGKYREIVASGLDSRATLEALVTTSYEAIDASHSAVAIYQDEVKHLVANERFTYLSELNTEFRELWMGVLEAGVKDGSFRSDIDVELAFRFLRDTAWVAVRWYRPGGSVTVDTVAKQYLSIVLDGLASPHN | soluble |
| MTPPRVLSIAGSDSGGGAGIQADMRTMALLGVHACVAVTAVTVQNTLGVKDIHEVPNDVVAGQIEAVVTDIGVQAAKTGMLASSRIVATVAATWRRLELSVPLVVDPVCASMHGDPLLAPSALDSLRGQLFPLATLLTPNLDEARLLVDIEVVDAESQRAAAKALHALGPQWVLVKGGHLRSSDGSCDLLYDGVSCYQFDAQRLPTGDDHGGGDTLATAIAAALAHGFTVPDAVDFGKRWVTECLRAAYPLGRGHGPVSPLFRLS | not soluble |
| MTPWLTVVGIGEDGFSGLGKQARRALLGAGRVFGSPRQLALLPRCVTAEQLAWPSPFSLAPVLALRGEPVCVLASGDPMFYGVGASLARQVPAAEMRVLSLPSSCALAAARLGWPLQDLQVVSLVARPLAALNAHLHSGMRLLVLSNDGDSPAAIAAQLRGQGFGPSRLQVFEHLGGVDERALAGTAQDWPHTGIAALNLVAIECLATPDAPRLHRLAGLPDAAYRHDGQLTKRDVRAITLARLAPQPGELLWDVGAGCGSIGIEWMRAHPACRALAIEADEGRQGLIEHNRDALGVPGLQLVRGKAPAALQGLEQPDAIFIGGGVTRTGVLDLCWASLRPGGRLVANAVTLQSELALAHFREQHGGELTRIHVAHAQPLGAFDTWRQALPITLLEVLKPADA | not soluble |
| MTQDRPLLAVQEALKKCFPVVEEQQGLWQSALRDCQPLLSSLSNLAEQLQAAQNLRFEDVPALRAFPDLKERLRQPSSSRCETWSAAMWSECFRSMSNTQTQLALMLSCSLQQ | soluble |
| MTQDYRVLLYYQYVPIEDGETFAQKHLADCKELGLKGRILVADEGINGTVSGTIEQTNAYMELMKNDPRFSSTIFKIDEAEQNAFKKMHVRYRPELVNLSLEDDVNPLELTGAYLDPKEFREAMLDENTVVIDARNDYEFDLGHFRGAIRPEIRSFRELPQWIRDNKEQFMEKRVLTYCTGGIRCEKFSGWLVREGFKDVGQLHGGIATYGKDPEVQGDLWDGQMYVFDSRIAVPINQKEHVIVGRDWFDGSPCERYINCGNPECNRQMLASEENEAKYLGACSHECRVHPNNRYIKAHQLSNQEVQERLALLEKDLASLEHHHHHH | soluble |
| MTQPELTPAQRTEVELLARGRADKSRVLRDLKLPETPEAAHALLLRLGVWDEARTPYADRLRAALNAVELPVPDFDPAEERLDLTHLPTFAIDDEGNQDPDDAVGVEDLGGGLTRLWVHVADVAALVAPDSPLDLEARARGATLYLPDRTIGMLPDELVAKAGLGLHEVSPALSICLDLDPDGNAEAVDVLLTRVKVQRLAYQEAQARLEAGEEPFVTLARLARASRRLREGEGALSIDLPEVRVKADETGASVFPLPKPEMRTVVQECMTLAGWGTAIFADDNEIPLPFATQDYPTREVAGDTLPAMWARRKTLARTRFQPSPGPHHGMGLDLYAQATSPMRRYLDLVVHQQLRAFLAGRDPLSSKVMAAHIAESQMNADATRQAERLSRRHHTLRFIAAQPERVWDAVVVDRRGAQATLLIPDLAFDVQVNTPAAPGTALQVQFADIDLPQMRVRARSVLEHHHHHH | soluble |
| MTQPLRQYREKRDFRATAEPAGAARRPRAAARASEGLSFVIQRHQARRLHYDFRLEIDGVLVSWAVPKGPSRDPSVKRLAVHVEDHPLEYGGFSGDIPKGQYGAGHVDIWDSGVWIPRGDPRQGLRRGKLHFALRGRRLAGDWVLVRMSGEQDQWLLRKEDDEALEHHHHHH | soluble |
| MTQQHPHLLEPELGEFLTALKNTPSRLTARTAAWLCIWTASRPGMVRLAEWKEFDLDKATWTTPAAKMKMRRDFVCPLPHQAIAALKELHCLTGRSRWLFPGVGAKNPTISENTINKVFATIGYKGRLVGHGTRHTASTLLREHGWPKEHVEAQLAHKEEGLEHHHHHH | not soluble |
| MTQTQPVGTLRLTIDDQGPQGQSRAVEQFHQGALRVIRPHYLDDSGQVCYTIIAIGGGYLGGDVYEQQFTIKDNAKALITTQSATKIYRTPQGPATQHTEINVGENAVLEYLADQTIAYREATYHQFTKVALHPSATFVMSEQITPGWHPDGKHFAYDEMRLHTEITDSTTGRLVLLDNLLLRPDSREGSFGWTEQYTHSGQMIVMGEGVDKQLVAELNEQLAAHPDVYGAVNFLSAPGTLLRGFIARTLSNRTEELINLHEHIASLLRGRWRGQEPVNLRKYLEHHHHHH | not soluble |
| MTREIIPILPEAPVETARSGNALPLLREIAEHLHHLLETGEASTIDLSALPLTPGDLEWLRAELGGGEVSVTLHADGASTLDETAFPGVWWIIHRNAQGAVTTQFIEVAFVPELVKSPRADVAAARAALVLRMADL | soluble |
| MTRMKYLVAAATLSLFLAGCSGSKEEVPDNPPNEIYATAQQKLQDGNWKQAITQLEALDNRYPFGPYSQQVQLDLIYAYYKNADLPLAQAAIDRFMRLNPTHPNIDYVMYMRGLTNMALDDSALQGFFGVDRSDRDPQHARAAFNDFSKLVRSYPNSQYTTDATKRLVFLKDRLAKYEYSVAEYYTARGAWVAVVNRVEGMLRNYPDTQATRDALPLMENAYRQMQLNAQADKVAKIIAANSKNT | not soluble |
| MTRPFNRVHLIVMDSVGIGEAPDAADFKDEGSHTLRHTLEGFDQTLPNLEKLGLGNIDKLPVVNAVEQPEAYYTKLSEASVGKDTMTGHWEIMGLNIMQPFKVYPNGFPEELIQQIEEMTGRKVVANKPASGTQIIDEWGEHQMKTGDLIVYTSADPVLQIAAHEDIIPLEELYDICEKVRELTKDPKYLIGRIIARPYVGEPGNFTRTSNRHDYALKPFGKTVLDHLKDGGYDVIAIGKINDIYDGEGVTEAVRTKSNMDGMDQLMKIVKKDFTGISFLNLVDFDALYGHRRDKPGYAQAIKDFDDRLPELFSNLKEDDLVIITADHGNDPTAPGTDHTREYIPVIMYSPKFKGGHALESDTTFSSIGATIADNFNVTLPEFGKSYLKELK | not soluble |
| MTRQERILQLPFFENKRELAEQVLKMEREEHVYLPDQFEIKQVPPYSFAEKEAIIGRIHEFYFVSIGSDGAWKYQLFKDEMKCREFFVTLSGITDQQIAFWFNNIELLKGA | not soluble |
| MTRTETLELLVATLQQTNASQSESIRQLTRQNEQLQNKLDELLAQVAWLNRQLFGRKSEKLSRLDPNQLSLFEQPVQSLEPEPLEETVVEQTTTPMVTKKKERQNRKLLEGLPVVEVVIEPQDLDLTKYKRIGEEHTRTLEFEPGKLYVKEIIRPKYGLKDNTALPQEYQDGIVIADLPLLPIYKGLPGASLLAEILLQKYEYHVPFYRQIREFHHLGLKIPENTLHGWFKPACELLKPLYDELKKQVLAVDYIQVDETTLPIINKQSHKAVREYLWMVRAVTSGLVFFHYDDGSRSQETARNLLEPFKGYLQSDGYAAYNVFEGKERVCLVGCLVHIRRHYETAKEENKSQAKYVLAKIQELYRIEQAADIQGISPEMRMSKRQKQALPILDELEQWMETTYPKVLPKSQMGQAIAYAYTLWPRMRNYLKDGKLKIDNNLAENAIRPIALSRKNFLFCGNHEAAENTDVICSLLASCKASQVNPREWLTEIIAWLPYYTRDKGKDLKELLPNYWKLRRSKEI | not soluble |
| MTRYALLVRGINVGGKNKVVMAELRQELTNLGLEKVESYINSGNIFFTSIDSKAQLVEKLETFFAVHYPFIQSFSLLSLEDFEAELENLPAWWSRDLARKDFLFYTEGLDVDQVIATVESLELKDEVLYFGKLGIFWGKFSEESYSKTAYHKYLLKVPFYRHITIRNAKTFDKIGQMLKK | soluble |
| MTSAAQLTALLHLASPALPVGAFSYSQGLEAAVEARHVHDEASAARWIAEGLAVLAACEAPLWLLQYADWQAGRLDAVAERDGWFLATRETRELRLETAQMGWSLARLIAQMGWGAPAMRDALAARAAITFPTAFAAAAVALGIEARDGLTAYSFAWVENQVAAAVKAIPLGQAAGQRILFGLHAAVGQAAEDAARRAACHPPELSTFSPGLGVLSARHETQYSRLFRSLEHHHHHH | not soluble |
| MTSAHDIDLQQILTDRLTGASPDLLRELLTMFIHTLMGAEADALCGAGYGQRSEERTNSRNGYRHRDFDTRVGTLDVAIPKLRSGSYFPDWLLERRKRAEKALTTVVATCYLLGVSTRRMDRLVDTLGITGLSKSQVSVMAKDLDTQVEAFRSRPLDTGPYTFVAADALVLKVRENGRVVNVHTLVAVGVNAEGYREILGVDVTSSEDGAGWLAFFRSLVARGLGGVRLVTSDAHAGLVAAIGGTLPGASWQRCRTHYSTNLMAVTPKASWPWVKTLLHSVYDQPDADSVHAQYDRIIGALSEKLPRVADHLDAARPDLLAFTAFPKQIWKQIWSNNPQERLNKEIRRRTDVVGIFPDRTALIRLVGAVLAEQHDEWIEGRRYLGLDVLARSRNDKPTDSSTESTEEVTPALTA | not soluble |
| MTSDNKQEYTIHIFGQDITSQDGLFRLDEIRRVGIQIGKVEDNRSTEVARFMRTKAGRSLTNPENGFVKKINMGHLGTSWLADPVAAIEFGRWLDLGYGLAVTRAFVSMTSSATVQSAVASAEDIKPETKEFIQRHGTGLYIAGREVSQAEYSDYQAVTAGRCEWR | not soluble |
| MTSEQYSVKLTPDFDNPKWIGRHKHMFNFLDVNHNGRISLDEMVYKASDIVINNLGATPEQAKRHKDAVEAFFGGAGMKYGVETEWPEYIEGWKRLASEELKRYSKNQITLIRLWGDALFDIIDKDQNGAISLDEWKAYTKSDGIIQSSEDCEETFRVCDIDESGQLDVDEMTRQHLGFWYTMDPACEKLYGGAVP | soluble |
